Read-outs that look alike come from different tables or passages of the source.
Key:
[1] = target: T1, human transglutaminase type 2 (TG2) (UniProt P21980 1-687); assay: enzyme inhibition
T1 chain: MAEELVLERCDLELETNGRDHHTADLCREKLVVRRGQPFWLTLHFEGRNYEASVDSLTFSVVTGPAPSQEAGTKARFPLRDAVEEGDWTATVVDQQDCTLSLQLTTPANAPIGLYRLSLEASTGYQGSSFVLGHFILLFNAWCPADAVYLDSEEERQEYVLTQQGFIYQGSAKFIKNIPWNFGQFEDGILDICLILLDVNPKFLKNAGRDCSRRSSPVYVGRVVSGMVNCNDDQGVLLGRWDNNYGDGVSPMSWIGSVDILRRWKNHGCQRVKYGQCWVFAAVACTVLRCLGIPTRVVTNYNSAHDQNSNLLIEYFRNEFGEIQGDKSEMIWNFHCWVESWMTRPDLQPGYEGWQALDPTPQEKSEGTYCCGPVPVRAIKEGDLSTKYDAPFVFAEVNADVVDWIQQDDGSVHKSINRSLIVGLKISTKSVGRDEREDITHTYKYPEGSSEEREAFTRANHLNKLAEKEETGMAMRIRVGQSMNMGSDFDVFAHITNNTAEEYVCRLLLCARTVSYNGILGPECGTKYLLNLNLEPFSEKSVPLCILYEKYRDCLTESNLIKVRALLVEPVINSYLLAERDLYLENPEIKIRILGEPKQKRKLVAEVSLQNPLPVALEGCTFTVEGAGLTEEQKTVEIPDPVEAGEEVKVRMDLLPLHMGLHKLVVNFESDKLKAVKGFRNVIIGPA

[2] = target: T1, human transglutaminase type 2 (TG2); assay: enzyme inhibition
cynomolgus monkey TG2 [3] = target: T2, cynomolgus monkey TG2 (cynomolgus monkey, UniProt A0A2K5VXI8 2-687); assay: ELISA
T2 chain: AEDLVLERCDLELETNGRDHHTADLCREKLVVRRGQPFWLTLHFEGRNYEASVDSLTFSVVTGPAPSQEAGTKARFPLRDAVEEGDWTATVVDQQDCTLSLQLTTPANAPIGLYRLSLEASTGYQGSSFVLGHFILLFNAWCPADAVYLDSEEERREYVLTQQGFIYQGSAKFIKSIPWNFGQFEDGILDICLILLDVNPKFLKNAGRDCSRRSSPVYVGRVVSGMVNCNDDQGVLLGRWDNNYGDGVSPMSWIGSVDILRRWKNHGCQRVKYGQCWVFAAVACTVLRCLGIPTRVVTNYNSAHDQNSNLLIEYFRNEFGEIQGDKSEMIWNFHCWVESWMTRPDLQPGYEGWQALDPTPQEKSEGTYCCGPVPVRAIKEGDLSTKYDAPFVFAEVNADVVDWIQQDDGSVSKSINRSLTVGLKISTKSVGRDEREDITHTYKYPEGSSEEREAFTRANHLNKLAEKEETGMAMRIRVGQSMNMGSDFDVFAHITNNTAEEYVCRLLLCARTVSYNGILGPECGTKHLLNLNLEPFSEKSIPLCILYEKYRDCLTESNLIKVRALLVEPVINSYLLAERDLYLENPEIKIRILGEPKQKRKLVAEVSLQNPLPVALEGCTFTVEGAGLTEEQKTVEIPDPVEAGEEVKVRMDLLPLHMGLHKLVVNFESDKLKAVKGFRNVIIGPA

[4] = target: T1, human transglutaminase type 2 (TG2); assay: ELISA
[5] = target: T1, human transglutaminase type 2 (TG2); assay: enzyme inhibition
cynomolgus monkey TG2 [6] = target: T2, cynomolgus monkey TG2; assay: ELISA
[7] = target: T1, human transglutaminase type 2 (TG2); assay: ELISA
cynomolgus monkey TG2 [8] = target: T2, cynomolgus monkey TG2; assay: enzyme inhibition
[9] = target: T1, human transglutaminase type 2 (TG2); assay: enzyme inhibition

B1: DH2 murine monoclonal anti-TG2 antibody (antibody, V domains shown)
VH: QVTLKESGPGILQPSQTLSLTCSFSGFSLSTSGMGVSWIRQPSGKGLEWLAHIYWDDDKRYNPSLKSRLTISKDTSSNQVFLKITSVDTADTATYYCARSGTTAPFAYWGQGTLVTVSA
VL: QIVLTQSPAIMSASPGEKVTMTCSASSSVSYMYWYQQKPGSSPRLLIYDTSNLASGVPVRFSGSGSGTSYSLTISRMEAEDAATFYCQQWSSSPLTFGAGTKLELK
In the case of B1, the EC50 [1] is reported as ~7000 nM.

B2: DD9 murine monoclonal anti-TG2 antibody (antibody, V domains shown)
VH: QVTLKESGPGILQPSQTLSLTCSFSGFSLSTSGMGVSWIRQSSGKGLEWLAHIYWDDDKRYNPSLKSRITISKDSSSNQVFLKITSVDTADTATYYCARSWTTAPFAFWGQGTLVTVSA
VL: QIVLTQSPAIMSASPGEKVTMTCSASSSVDYMYWYQQKPGSSPRLLIYDTSNLASGVPVRFSGSGSGTSYSLTISRMGAEDAATYYCQQWNSSPLTFGAGTKLELK
B2 gave an EC50 [2] of 564 nM.

B3: cAB003 chimeric anti-TG2 antibody (murine AB1 variable regions, human IgG1 and human kappa) (antibody, V domains shown)
VH: EVQLVESGGGLVKPGGSLKLSCAASGFTLSSSAMSWVRQTPDRRLEWVATISVGGGKTYYPDSVKGRFTISRDNAKNTLYLQMNSLRSEDTAMYYCAKLISLYWGQGTTLTVSS
VL: DIKMTQSPSSMYASLGERVTITCKASQDINSYLTWFQQKPGKSPKTLIYRTNRLFDGVPSRFSGSGSGQDFFLTISSLEYEDMGIYYCLQYDDFPYTFGGGTKLEIK
For B3, the EC50 (cynomolgus monkey TG2 [3]) was 0.0568 nM, the EC50 [4] was 0.0614 nM and the IC50 [5] was 1.17 nM.

B4: DC1 murine monoclonal anti-TG2 antibody (antibody, V domains shown)
VH: EVQLVESGGGLVKPGGSLKLSCAASGFTLSTHAMSWVRQTPEKRLEWVATISSGGRSTYYPDSVKGRFTISRDNVKNTLYLQLSSLRSEDTAVYFCARLISTYWGQGTTLTVSS
VL: DITMTQSPSSIYASLGERVTITCKASQDINSYLTWFQQKPGKSPKILIYLVNRLVDGVPSRFSGSGSGQDYALTISSLEYEDMGIYYCLQYDDFPYTFGGGTKLEIK
For B4, the EC50 [2] was 0.571 nM.

B5: hBB001AA humanised BB7 antibody (BB7 RHA with BB7 RKA) (antibody, V domains shown)
VH: EVQLLESGGGLVQPGGSLRLSCAASGIIFSSSAMSWVRQAPGKGLEWVATISSGGRSTYYPDSVKGRFTVSRDSSKNTLYLQMNSLRAEDTAVYYCAKLISPYWGQGTLVTVSS
VL: DIKMTQSPSSLSASVGDRVTITCKASQDINSYLTWFQQKPGKAPKTLIYLTNRLMDGVPSRFSGSGSGQEFLLTISSLQPEDFATYYCLQYVDFPYTFGQGTKVEIK
In the case of B5, the EC50 (cynomolgus monkey TG2 [6]) is reported as 0.0561 nM, the EC50 [7] is reported as ~0.0474 nM and the IC50 (cynomolgus monkey TG2 [8]) is reported as 8.51 nM. For the same binder, the IC50 [9] was 5.99 nM.

B6: hBB001BB humanised BB7 antibody (BB7 RHB with BB7 RKB) (antibody, V domains shown)
VH: EVQLLESGGGLVQPGGSLRLSCAASGFTFSSSAMSWVRQAPGKGLEWVSTISSGGRSTYYPDSVKGRFTISRDNSKNTLYLQMNSLRAEDTAVYYCAKLISPYWGQGTLVTVSS
VL: DIQMTQSPSSLSASVGDRVTITCKASQDINSYLTWFQQKPGKAPKSLIYLTNRLMDGVPSRFSGSGSGTDFFLTISSLQPEDFATYYCLQYVDFPYTFGQGTKVEIK
B6 was tested, and the EC50 (cynomolgus monkey TG2 [6]) was 0.0738 nM, the EC50 [7] was 0.0627 nM and the IC50 [9] was 0.985 nM.
